Measured values from IntAct's records for PubMed 31515488.

B1: Four and a half LIM domains protein 2 (Homo sapiens), Q14192 (parent)
chain: MTERFDCHHCNESLFGKKYILREESPYCVVCFETLFANTCEECGKPIGCDCKDLSYKDRHWHEACFHCSQCRNSLVDKPFAAKEDQLLCTDCYSNEYSSKCQECKKTIMPGTRKMEYKGSSWHETCFICHRCQQPIGTKSFIPKDNQNFCVPCYEKQHAMQCVQCKKPITTGGVTYREQPWHKECFVCTACRKQLSGQRFTARDDFAYCLNCFCDLYAKKCAGCTNPISGLGGTKYISFEERQWHNDCFNCKKCSLSLVGRGFLTERDDILCPDCGKDI
partner: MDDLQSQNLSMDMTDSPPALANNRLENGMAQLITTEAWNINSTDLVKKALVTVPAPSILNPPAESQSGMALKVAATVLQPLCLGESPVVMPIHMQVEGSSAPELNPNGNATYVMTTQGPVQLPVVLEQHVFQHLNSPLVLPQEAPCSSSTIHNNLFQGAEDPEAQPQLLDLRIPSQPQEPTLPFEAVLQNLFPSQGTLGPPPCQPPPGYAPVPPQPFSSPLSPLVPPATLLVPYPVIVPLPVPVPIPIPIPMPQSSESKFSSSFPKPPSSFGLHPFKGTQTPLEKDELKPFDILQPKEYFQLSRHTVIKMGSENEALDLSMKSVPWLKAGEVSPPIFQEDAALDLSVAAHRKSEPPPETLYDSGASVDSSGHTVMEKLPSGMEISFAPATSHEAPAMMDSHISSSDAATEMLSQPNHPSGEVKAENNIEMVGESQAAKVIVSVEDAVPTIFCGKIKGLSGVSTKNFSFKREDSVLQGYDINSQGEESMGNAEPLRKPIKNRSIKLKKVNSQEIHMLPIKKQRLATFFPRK
B2: TNF receptor-associated factor 1 (Homo sapiens), Q13077 (parent)
chain: MASSSGSSPRPAPDENEFPFGCPPTVCQDPKEPRALCCAGCLSENPRNGEDQICPKCRGEDLQSISPGSRLRTQEKAHPEVAEAGIGCPFAGVGCSFKGSPQSVQEHEVTSQTSHLNLLLGFMKQWKARLGCGLESGPMALEQNLSDLQLQAAVEVAGDLEVDCYRAPCSESQEELALQHFMKEKLLAELEGKLRVFENIVAVLNKEVEASHLALATSIHQSQLDRERILSLEQRVVELQQTLAQKDQALGKLEQSLRLMEEASFDGTFLWKITNVTRRCHESACGRTVSLFSPAFYTAKYGYKLCLRLYLNGDGTGKRTHLSLFIVIMRGEYDALLPWPFRNKVTFMLLDQNNREHAIDAFRPDLSSASFQRPQSETNVASGCPLFFPLSKLQSPKHAYVKDDTMFLKCIVETST
B3: AP-4 complex subunit beta-1 (Homo sapiens), Q9Y6B7 (parent)
chain: MPYLGSEDVVKELKKALCNPHIQADRLRYRNVIQRVIRYMTQGLDMSGVFMEMVKASATVDIVQKKLVYLYMCTYAPLKPDLALLAINTLCKDCSDPNPMVRGLALRSMCSLRMPGVQEYIQQPILNGLRDKASYVRRVAVLGCAKMHNLHGDSEVDGALVNELYSLLRDQDPIVVVNCLRSLEEILKQEGGVVINKPIAHHLLNRMSKLDQWGQAEVLNFLLRYQPRSEEELFDILNLLDSFLKSSSPGVVMGATKLFLILAKMFPHVQTDVLVRVKGPLLAACSSESRELCFVALCHVRQILHSLPGHFSSHYKKFFCSYSEPHYIKLQKVEVLCELVNDENVQQVLEELRGYCTDVSADFAQAAIFAIGGIARTYTDQCVQILTELLGLRQEHITTVVVQTFRDLVWLCPQCTEAVCQALPGCEENIQDSEGKQALIWLLGVHGERIPNAPYVLEDFVENVKSETFPAVKMELLTALLRLFLSRPAECQDMLGRLLYYCIEEEKDMAVRDRGLFYYRLLLVGIDEVKRILCSPKSDPTLGLLEDPAERPVNSWASDFNTLVPVYGKAHWATISKCQGAERCDPELPKTSSFAASGPLIPEENKERVQELPDSGALMLVPNRQLTADYFEKTWLSLKVAHQQVLPWRGEFHPDTLQMALQVVNIQTIAMSRAGSRPWKAYLSAQDDTGCLFLTELLLEPGNSEMQISVKQNEARTETLNSFISVLETVIGTIEEIKS
partner: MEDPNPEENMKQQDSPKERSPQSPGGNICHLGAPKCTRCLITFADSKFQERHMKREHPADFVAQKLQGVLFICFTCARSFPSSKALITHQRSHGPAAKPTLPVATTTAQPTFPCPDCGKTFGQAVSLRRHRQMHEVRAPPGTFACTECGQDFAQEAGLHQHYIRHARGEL
B4: Outer dense fiber protein 1 (Homo sapiens), Q14990 (parent)
chain: MAALSCLLDSVRRDIKKVDRELRQLRCIDEFSTRCLCDLYMHPYCCCDLHPYPYCLCYSKRSRSCGLCDLYPCCLCDYKLYCLRPSLRSLERKAIRAIEDEKRELAKLRRTTNRILASSCCSSNILGSVNVCGFEPDQVKVRVKDGKVCVSAERENRYDCLGSKKYSYMNICKEFSLPPCVDEKDVTYSYGLGSCVKIESPCYPCTSPCSPCSPCSPCNPCSPCNPCSPYDPCNPCYPCGSRFSCRKMIL

Variants of: B1
Settings: with rai2_human RAI2, Q9Y5P3

| effect of a mutation on the interaction | Variant |
| --- | --- |
| with no effect | MTERFDCHHCNESLFGKKYILREESPYCVVCFETLFSNTCEECGKPIGCDCKDLSYKDRHWHEACFHCSQCRNSLVDKPFAAKEDQLLCTDCYSNEYSSKCQECKKTIMPGTRKMEYKGSSWHETCFICHRCQQPIGTKSFIPKDNQNFCVPCYEKQHAMQCVQCKKPITTGGVTYREQPWHKECFVCTACRKQLSGQRFTARDDFAYCLNCFCDLYAKKCAGCTNPISGLGGTKYISFEERQWHNDCFNCKKCSLSLVGRGFLTERDDILCPDCGKDI [A37S] |
| with no effect | MTERFDCHHCNESLFGKKYILREESPYCVVCFETLFANTCEECGKPIGCDCKDLSYKDRHWHEACFHCSQCRNSLVDKPFAAKEDQLLCTDCYSKEYSSKCQECKKTIMPGTRKMEYKGSSWHETCFICHRCQQPIGTKSFIPKDNQNFCVPCYEKQHAMQCVQCKKPITTGGVTYREQPWHKECFVCTACRKQLSGQRFTARDDFAYCLNCFCDLYAKKCAGCTNPISGLGGTKYISFEERQWHNDCFNCKKCSLSLVGRGFLTERDDILCPDCGKDI [N95K] |

Variants of: B2
Settings: with traf2_human TRAF2, Q12933
Sequence of traf2_human TRAF2, Q12933 (Q12933 whole entry): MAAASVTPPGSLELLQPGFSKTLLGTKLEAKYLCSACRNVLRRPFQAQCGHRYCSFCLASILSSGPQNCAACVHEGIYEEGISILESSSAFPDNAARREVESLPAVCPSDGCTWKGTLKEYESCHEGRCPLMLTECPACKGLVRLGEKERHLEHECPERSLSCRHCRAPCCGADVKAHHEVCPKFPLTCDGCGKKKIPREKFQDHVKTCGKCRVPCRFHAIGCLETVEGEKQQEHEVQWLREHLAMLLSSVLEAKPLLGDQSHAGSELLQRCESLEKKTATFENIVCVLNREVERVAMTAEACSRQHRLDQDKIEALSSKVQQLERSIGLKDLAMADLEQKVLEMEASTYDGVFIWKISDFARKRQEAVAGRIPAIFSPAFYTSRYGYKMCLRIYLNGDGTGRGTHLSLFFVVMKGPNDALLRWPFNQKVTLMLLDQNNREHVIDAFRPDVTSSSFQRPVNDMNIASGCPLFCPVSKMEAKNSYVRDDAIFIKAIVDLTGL

| effect of a mutation on the interaction | Variant |
| --- | --- |
| with no effect | MASSSGSSPRPAPDENEFPFGCPPTVCQDPKEPRALCCAGCLSENPRNGEDQICPKCRGEDLQSISPGSRLRTQEKAHPEVAEAGIGCPFAGVGCSFKGSPQSVQEHEVTSQTSHLNLLLGFMKQWKARLGCGLESGPMALEQNLSDLQLQAAVEVAGDLEVDCYRAPCSESQEELALQHFMKEKLLAELEGKLRVFENIVAVLNKEVEASHLALATSIHQSQLDCERILSLEQRVVELQQTLAQKDQALGKLEQSLRLMEEASFDGTFLWKITNVTRRCHESACGRTVSLFSPAFYTAKYGYKLCLRLYLNGDGTGKRTHLSLFIVIMRGEYDALLPWPFRNKVTFMLLDQNNREHAIDAFRPDLSSASFQRPQSETNVASGCPLFFPLSKLQSPKHAYVKDDTMFLKCIVETST [R226C] |
| with no effect | MASSSGSSPRPAPDENEFPFGCPPTVCQDPKEPRALCCAGCLSENPRNGEDQICPKCRGEDLQSISPGSRLRTQEKAHPEVAEAGIGCPFAGVGCSFKGSPQSVQEHEVTSQTSHLNLLLGFMKQWKARLGCGLESGPMALEQNLSDLQLQAAVEVAGDLEVDCYRAPCSESQEELALQHFMKEKLLAELEGKLRVFENIVAVLNKEVEASHLALATSIHQSQLDHERILSLEQRVVELQQTLAQKDQALGKLEQSLRLMEEASFDGTFLWKITNVTRRCHESACGRTVSLFSPAFYTAKYGYKLCLRLYLNGDGTGKRTHLSLFIVIMRGEYDALLPWPFRNKVTFMLLDQNNREHAIDAFRPDLSSASFQRPQSETNVASGCPLFFPLSKLQSPKHAYVKDDTMFLKCIVETST [R226H] |
| with no effect | MASSSGSSPRPAPDENEFPFGCPPTVCQDPKEPRALCCAGCLSENPRNGEDQICPKCRGEDLQSISPGSRLRTQEKAHPEVAEAGIGCPFAGVGCSFKGSPQSVQEHEVTSQTSHLNLLLGFMKQWKARLGCGLESGPMALEQNLSDLQLQAAVEVAGDLEVDCYRAPCSESQEELALQHFMKEKLLAELEGKLRVFENIVAVLNKEMEASHLALATSIHQSQLDRERILSLEQRVVELQQTLAQKDQALGKLEQSLRLMEEASFDGTFLWKITNVTRRCHESACGRTVSLFSPAFYTAKYGYKLCLRLYLNGDGTGKRTHLSLFIVIMRGEYDALLPWPFRNKVTFMLLDQNNREHAIDAFRPDLSSASFQRPQSETNVASGCPLFFPLSKLQSPKHAYVKDDTMFLKCIVETST [V208M] |
| with no effect | MASSSGSSPRPAPDENEFPFGCPPTVCQDPKEPRALCCAGCLSENPRNGEDQICPKCRGEDLQSISPGSRLRTQEKAHPEVAEAGIGCPFAGVGCSFKGSPQSVQEHEVTSQTSHLNLLLGFMKQWKARLGCGLESGPMALEQNLSDLQLQAAVEVAGDLEVDCYRAPCSESQEELALQHFMKEKLLAELEGKLRVFENIVAVLNKEVEASHLALATSIHQSQLDREHILSLEQRVVELQQTLAQKDQALGKLEQSLRLMEEASFDGTFLWKITNVTRRCHESACGRTVSLFSPAFYTAKYGYKLCLRLYLNGDGTGKRTHLSLFIVIMRGEYDALLPWPFRNKVTFMLLDQNNREHAIDAFRPDLSSASFQRPQSETNVASGCPLFFPLSKLQSPKHAYVKDDTMFLKCIVETST [R228H] |
| with no effect | MASSSGSSPRPAPDENEFPFGCPPTVCQDPKEPRALCCAGCLSENPRNGEDQICPKCRGEDLQSISPGSRLRTQEKAHPEVAEAGIGCPFAGVGCSFKGSPQSVQEHEVTSQTSHLNLLLGFMKQWKARLGCGLESGPMALEQNLSDLQLQAAVEVAGDLEVDCYRAPCSESQEELALQHFMKEKLLAELEGKLRVFENIVAVLNKEVEASHLALATSIHQSQLDRECILSLEQRVVELQQTLAQKDQALGKLEQSLRLMEEASFDGTFLWKITNVTRRCHESACGRTVSLFSPAFYTAKYGYKLCLRLYLNGDGTGKRTHLSLFIVIMRGEYDALLPWPFRNKVTFMLLDQNNREHAIDAFRPDLSSASFQRPQSETNVASGCPLFFPLSKLQSPKHAYVKDDTMFLKCIVETST [R228C] |
| with no effect | MASSSGSSPRPAPDENEFPFGCPPTVCQDPKEPRALCCAGCLSENPRNGEDQICPKCRGEDLQSISPGSRLRTQEKAHPEVAEAGIGCPFAGVGCSFKGSPQSVQEHEVTSQTSHLNLLLGFMKQWKARLGCGLESGPMALEQNLSDLQLQAAVEVAGDLEVDCYRAPCSESQEELALQHFMKEKLLAELEGRLRVFENIVAVLNKEVEASHLALATSIHQSQLDRERILSLEQRVVELQQTLAQKDQALGKLEQSLRLMEEASFDGTFLWKITNVTRRCHESACGRTVSLFSPAFYTAKYGYKLCLRLYLNGDGTGKRTHLSLFIVIMRGEYDALLPWPFRNKVTFMLLDQNNREHAIDAFRPDLSSASFQRPQSETNVASGCPLFFPLSKLQSPKHAYVKDDTMFLKCIVETST [K193R] |

Variants of: B3
Settings: with zn576_human ZNF576, Q9H609

| effect of a mutation on the interaction | Variant |
| --- | --- |
| with no effect | L480S |

Variants of: B4
Settings: with mtus2_human MTUS2, Q5JR59

| effect of a mutation on the interaction | Variant |
| --- | --- |
| with no effect | MAALSCLLDSVRRDIKNVDRELRQLRCIDEFSTRCLCDLYMHPYCCCDLHPYPYCLCYSKRSRSCGLCDLYPCCLCDYKLYCLRPSLRSLERKAIRAIEDEKRELAKLRRTTNRILASSCCSSNILGSVNVCGFEPDQVKVRVKDGKVCVSAERENRYDCLGSKKYSYMNICKEFSLPPCVDEKDVTYSYGLGSCVKIESPCYPCTSPCSPCSPCSPCNPCSPCNPCSPYDPCNPCYPCGSRFSCRKMIL [K17N] |
